Test results: patent US11198713B2, “Agents modulating beta-catenin functions and methods thereof” (FOG PHARMACEUTICALS, INC., priority 2017, dated 2021)
Numbered stars: 1 amine (or outer) side, 2 acyl side, 3 side chain; on linkers, the order of the positions; unused ones are H or OH. Bridge positions count the residues as written; N and C are the ends. Square brackets hold non-standard residues; d marks the D form. Primed or numbered codes have the meaning given here. R6 = (R)-2-(5-hexenyl)alanine, C=CCCCC[C@@](C)(N[*:1])C(=O)[*:2]; S6 = (S)-2-(5-hexenyl)alanine, C=CCCCC[C@](C)(N[*:1])C(=O)[*:2]; MA = Monomer A (Az), N-Alloc azetidine stapling residue; S7 = C[C@@](CCCCCC=[*:3])(N[*:1])C(=O)[*:2]; MB(7) = not defined here

T1: full-length beta-catenin (Axin site) (Homo sapiens, UniProt P35222)
T1 construct: 15 nM full-length beta-catenin, 20 nM FITC labeled peptide in buffer
T1 sequence (P35222 1-781): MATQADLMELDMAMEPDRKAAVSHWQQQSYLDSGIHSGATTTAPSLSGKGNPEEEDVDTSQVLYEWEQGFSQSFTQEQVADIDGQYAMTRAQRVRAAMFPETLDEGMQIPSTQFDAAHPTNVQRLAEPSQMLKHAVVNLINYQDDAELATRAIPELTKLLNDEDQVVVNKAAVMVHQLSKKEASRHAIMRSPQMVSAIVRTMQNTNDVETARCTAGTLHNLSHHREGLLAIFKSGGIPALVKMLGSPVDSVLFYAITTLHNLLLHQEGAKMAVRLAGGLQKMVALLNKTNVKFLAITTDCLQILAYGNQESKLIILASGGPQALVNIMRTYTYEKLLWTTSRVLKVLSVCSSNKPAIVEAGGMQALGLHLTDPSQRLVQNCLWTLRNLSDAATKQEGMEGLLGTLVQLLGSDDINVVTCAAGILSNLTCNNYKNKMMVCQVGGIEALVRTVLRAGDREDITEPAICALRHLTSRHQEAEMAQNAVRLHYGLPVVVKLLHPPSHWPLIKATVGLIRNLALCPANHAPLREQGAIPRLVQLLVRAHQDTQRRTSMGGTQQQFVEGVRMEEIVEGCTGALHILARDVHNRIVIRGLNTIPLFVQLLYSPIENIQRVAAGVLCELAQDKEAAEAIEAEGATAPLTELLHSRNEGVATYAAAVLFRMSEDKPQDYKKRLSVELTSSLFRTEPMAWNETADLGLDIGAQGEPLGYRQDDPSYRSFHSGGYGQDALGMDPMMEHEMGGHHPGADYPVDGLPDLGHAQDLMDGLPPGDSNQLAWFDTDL

T2: biotinylated beta-catenin (Homo sapiens, UniProt P35222)
T2 sequence (P35222 1-781): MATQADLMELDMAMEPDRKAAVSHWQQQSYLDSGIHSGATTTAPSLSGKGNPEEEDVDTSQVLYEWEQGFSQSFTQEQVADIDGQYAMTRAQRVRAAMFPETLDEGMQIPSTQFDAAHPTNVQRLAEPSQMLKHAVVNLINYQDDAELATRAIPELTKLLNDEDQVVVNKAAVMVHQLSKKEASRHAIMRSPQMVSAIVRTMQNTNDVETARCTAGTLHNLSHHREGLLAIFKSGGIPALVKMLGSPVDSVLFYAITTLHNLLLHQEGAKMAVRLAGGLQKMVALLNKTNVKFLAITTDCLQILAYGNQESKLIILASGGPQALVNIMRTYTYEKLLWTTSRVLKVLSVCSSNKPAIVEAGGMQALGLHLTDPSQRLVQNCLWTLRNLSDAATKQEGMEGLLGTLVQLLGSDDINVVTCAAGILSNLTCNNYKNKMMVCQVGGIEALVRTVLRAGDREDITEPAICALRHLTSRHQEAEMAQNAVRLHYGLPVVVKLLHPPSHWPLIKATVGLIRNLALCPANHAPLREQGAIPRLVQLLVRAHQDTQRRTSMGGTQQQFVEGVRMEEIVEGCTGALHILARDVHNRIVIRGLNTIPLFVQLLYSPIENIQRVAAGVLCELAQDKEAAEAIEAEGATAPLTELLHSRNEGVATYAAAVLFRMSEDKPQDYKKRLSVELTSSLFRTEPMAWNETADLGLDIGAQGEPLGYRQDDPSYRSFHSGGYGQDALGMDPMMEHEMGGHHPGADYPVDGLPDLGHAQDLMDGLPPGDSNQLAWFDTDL

T3: full-length beta-catenin (UniProt P35222 2-781, limits assumed)
T3 construct: mature; also called full-length ß-Catenin; β-catenin
T3 sequence (looked up): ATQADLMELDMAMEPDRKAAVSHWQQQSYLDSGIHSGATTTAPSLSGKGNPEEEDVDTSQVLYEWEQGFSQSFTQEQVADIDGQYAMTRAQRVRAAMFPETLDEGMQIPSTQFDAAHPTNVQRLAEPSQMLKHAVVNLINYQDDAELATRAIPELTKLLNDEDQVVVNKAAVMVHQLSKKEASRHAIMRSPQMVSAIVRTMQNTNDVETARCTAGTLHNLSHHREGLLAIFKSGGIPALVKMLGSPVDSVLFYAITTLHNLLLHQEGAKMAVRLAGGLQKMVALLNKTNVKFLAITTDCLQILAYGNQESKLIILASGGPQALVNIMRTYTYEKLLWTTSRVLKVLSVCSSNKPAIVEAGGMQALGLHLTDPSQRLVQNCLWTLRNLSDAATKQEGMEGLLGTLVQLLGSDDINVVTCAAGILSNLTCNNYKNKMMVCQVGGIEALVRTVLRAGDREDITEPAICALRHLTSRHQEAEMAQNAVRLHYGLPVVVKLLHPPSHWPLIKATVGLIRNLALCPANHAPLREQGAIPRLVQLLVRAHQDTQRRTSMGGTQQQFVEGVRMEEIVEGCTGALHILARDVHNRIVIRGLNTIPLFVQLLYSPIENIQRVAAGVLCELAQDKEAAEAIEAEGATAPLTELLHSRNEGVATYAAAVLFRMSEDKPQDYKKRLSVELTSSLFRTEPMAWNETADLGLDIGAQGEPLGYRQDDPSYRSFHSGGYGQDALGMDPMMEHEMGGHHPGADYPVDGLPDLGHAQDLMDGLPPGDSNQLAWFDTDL

B1: FP0767a (peptide)
peptide: Ac-PQ[R6]ILD[MC]HVRRVWR-NH2
modifications: staple 3-7; also: amino staple (-N(R')-), from carbamate staple by metathesis then Pd(0) CO2 extrusion
notes: also called FP-0767 (amino staple)
B2: FP0736a (peptide)
peptide: Ac-PQ[S6]ILD[MA]HVRRVWR-NH2
modifications: staple 3-7; also: amino staple: CO2 extruded from carbamate staple with Pd(PPh3)4
notes: also called FP-0736 (amino staple)
B3: FP0763a (peptide)
peptide: Ac-PQ[S7]ILD[MB(7)]HVRRVWR-NH2
modifications: staple 3-7; reading uncertain; also: amino staple: CO2 extruded from carbamate staple with Pd(PPh3)4
notes: also called FP-0763 (amino staple)
B4: FP0725a (peptide)
peptide: Ac-PQ[MA]ILD[R6]HVRRVWR-NH2
modifications: staple 3-7; also: amino staple: CO2 extruded from MA carbamate staple with Pd(PPh3)4
notes: also called FP-0725 (amino staple)
B5: FP0735a (peptide)
peptide: Ac-PQ[R6]ILD[MA]HVRRVWR-NH2
modifications: staple 3-7; also: amino staple: CO2 extruded from carbamate staple with Pd(PPh3)4
notes: also called FP-0735 (amino staple)

Tests used:
[1] = target: T1, full-length beta-catenin (Axin site); assay: Competition fluorescence polarization assay (Axin site probe); type: binding; conditions: competition fluorescence polarization, Table 2; read-out: in vitro FP EC50
Method in brief: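 Competition FP: 15 nM full-length β-catenin pre-incubated 5 min with 20 nM FITC-labelled stapled Axin-site peptide, then titrated peptide added (3-fold series from 5 μM) for 15 min in the dark. Buffer 50 mM Tris pH 8.0, 250 mM NaCl, 2% glycerol, 0.5 mM EDTA; duplicate reads.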

[2] = target: T2, biotinylated beta-catenin; assay: Surface Plasmon Resonance (Biacore); type: binding; conditions: Table 2; read-out: Kd by SPR
Experimental: Additionally or alternatively, binding to beta-catenin may be measured by Surface Plasmon Resonance. In an exemplary assay, approximately 6 nmol dried peptide diluted in buffer (50 mM Tris pH 8.0, 300 mM NaCl, 2% glycerol, 0.5 mM TCEP, 0.5 mM EDTA, 0.005% Tween-20, 1 mg/mL CM Dextran, 0.02% w/v sodium azide) was assayed on a Biacore X100 using the Biacore Biotin CAPture Kit (GE Healthcare) and biotinylated beta-catenin. Results were analyzed using the Biacore X100 Evaluation Software. […] FPO217c (Isomer 2) bound to the armadillo domain of β-catenin with a Kd of 2 nM.

full-length beta-catenin [3] = target: T3, full-length beta-catenin; assay: competition FP; amino staple (cyclic)
Experimental: (§1) In some embodiments, a competition fluorescence polarization assay is used to assess binding of provided compounds to beta-catenin. In an exemplary procedure, solutions of provided compounds, e.g., provided stapled peptides, were prepared in a buffer (e.g., 50 mM Tris pH 8.0, 250 mM NaCl, 2% glycerol, 0.5 mM EDTA, 0.02% w/v sodium azide) using a 3-fold serial dilution from 5 µM. Probe solution (15 nM full-length ß-Catenin, 20 nM FITC labeled peptide in buffer) was prepared and incubated for a period of time, e.g., 5 minutes, and the a volume, e.g., 40 µL per well plated in suitable plate, e.g., a black polystyrene 384-well plate (Corning). Equal volume of the serial diluted peptide was added to the plate and incubated protected from light for 15 minutes prior to read. Reads were performed on a Spectramax M5 (Molecular Devices) in duplicate. Suitable probe was FITC-PEG1-PQ-S5-ILD-S5-HVRRVWR (SEQ ID NO: 1) (hydrocarbon staple formed by two S5 via olefin metathesis) and/or FITC-bA-PQ-S5-ILD-S5-HVRRVWR (SEQ ID NO: 3) (hydrocarbon staple formed by two S5 via olefin metathesis). […] Another peptide, FPO217c (Ac-AR_8ILDAHIM$B5$RVW (SEQ ID NO: 280), with N-terminal proline removed and valine replaced with isoleucine compared to FP0025c) was prepared.

full-length beta-catenin [4] = target: T3, full-length beta-catenin; assay: competition FP, grade of FP EC50 (+: 500-5000 nM)
Experimental: as §1

full-length beta-catenin [5] = target: T3, full-length beta-catenin; assay: competition FP, grade of FP EC50 (++: 100-500 nM)
Method in brief: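 Compound 3-fold serially diluted from 5 µM in Tris pH 8.0, 250 mM NaCl buffer, added to premixed 15 nM full-length β-catenin and 20 nM FITC-labelled stapled axin-site peptide probe. Incubated 15 min in the dark, polarization read in duplicate.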

Molecule	EC50 [1]	Kd [2]	EC50 (full-length beta-catenin [3])	FP EC50 (full-length beta-catenin [4])	FP EC50 (full-length beta-catenin [5])
CC[C@H](C)[C@@H]1NC(=O)[C@H](Cc2c[nH]cn2)NC(=O)[C@H](C)NC(=O)[C@H](CC(=O)O)NC(=O)[C@H](CC(C)C)NC(=O)[C@H]([C@@H](C)CC)NC(=O)[C@](C)(NC(=O)[C@H](C)NC(C)=O)CCCCCCC=CCOC(=O)N(C)C[C@@](C)(C(=O)N[C@@H](CCCNC(=N)N)C(=O)N[C@H](C(=O)N[C@@H](Cc2c[nH]c3ccccc23)C(N)=O)C(C)C)NC1=O [FP0338c, Ac-A-R8-I-L-D-A-H-I-MD-R-V-W-NH2]	100 to 500 nM	3 nM			
B1			700 nM	500 to 5000 nM	
B2			470 nM		100 to 500 nM
B3			1110 nM	500 to 5000 nM	
B4			580 nM	500 to 5000 nM	
B5			2360 nM	500 to 5000 nM	
